Assays:
[1] = system: patients with persistent moderate to severe atopic dermatitis inadequately controlled by TCS; test: Clinical Study I: safety, Weeks 0 to 20; type: in vivo, human
From the text: Safety Follow-Up Period. All patients who completed study treatment during the placebo-controlled treatment period (Weeks 1-12) were followed for safety for an additional 8 weeks (Weeks 13-20). During this safety follow-up period, patients were no longer required to apply the topical treatment regimen as specified during the run-in and treatment periods. Instead, triamcinolone acetonide 0.1% cream and/or hydrocortisone 2.5% cream could be applied as determined by the patient and the study investigator. At each study visit the patient was required to bring their TCS containers to the study site to be weighed. Patients were encouraged to continue applying emollients at least once daily to xerotic skin. An escalation in therapy for AD was allowed at any during the study, if, in the opinion of the investigator, it was clinically indicated.
Safety Outcome Measures. The safety outcome measures for this study were as follows: (i) frequency and severity of treatment-emergent adverse events; (ii) incidence of human anti-therapeutic antibodies (ATA) at baseline and during the study; (iii) frequency and severity of skin and other organ system infections throughout the study; the clinical definition of skin infection was as follows: the diagnosis of infection was based on the Investigator's clinical assessment including but not limited to the presence of honey-colored crusting, serous discharge, pustules, or pain at the site of rash and that may be associated with systemic features, including fever or a flare in AD disease (defined above); and (iv) incidence of disease rebound following discontinuation of study drug as assessed by the investigator; the clinical definition of disease rebound was: a significant worsening of disease severity after cessation of therapy to a severity level that is greater than prior to commencing therapy (Hijnen et al., J Eur Acad Dermatol Venereol 2007; 21(1) 85-9).

[2] = system: adult patients with persistent moderate to severe AD inadequately controlled by TCS; test: Clinical Study II (phase II, open label, lebrikizumab monotherapy vs TCS alone): efficacy; type: in vivo, human; conditions: for % change in BSA / % change in EASI / % change in SCORAD / EASI-75 (percent of patients) / EASI-90 (percent of patients) / IGA 0/1 (percent of patients): lebrikizumab 125 mg SC Q4W monotherapy (n = 28) or TCS cream alone BID (n = 27); for % change in pruritus VAS: patients with baseline pruritus VAS ≥3, lebrikizumab 125 mg SC Q4W monotherapy or TCS cream alone BID
From the text: Clinical Study II was a Phase II, randomized, open label study to evaluate the safety and efficacy of lebrikizumab monotherapy in adult patients (18-75 years of age) with persistent moderate to severe AD, who were inadequately controlled by TCS.
The inclusion criteria included the following: age 18 to 75 years; AD diagnosed by the Hanifin/Rajka criteria and that had been present for at least 1 year at screening; moderate to severe AD as graded by the Rajka/Langeland criteria at screening; history of inadequate response to a 1 month (within the 3 months prior to the screening visit) treatment regimen of at least daily TCS and regular emollient for treatment of AD; EASI score 14 at screening and end of the run-in period (Visit 3), IGA score 3 (5-point scale) at screening and end of the run-in period (Visit 3); AD involvement of 10% body surface area (BSA) at screening; and Pruritus VAS score (measured as part of the SCORAD) of 3 at screening; adherence to the protocol-specified 2-week run-in period TCS regimen (at least 10 out of 14 days) at the time of entry into the treatment period (Day 1).
Run-in Period. Following screening, eligible patients entered a 2-week run-in period (Days −14 to −1). After the run-in period, patients stopped use of their pre-study TCS (and other AD medications) and began a protocol-specified topical therapy regimen as outlined below. On the first day of the run-in period (Day −14) patients received TCS for use throughout the run-in period. Specifically, patients received triamcinolone acetonide 0.1% cream for use on the body and hydrocortisone 2.5% cream for use on the face and intertriginous areas. Patients were instructed to apply emollient to all xerotic skin surfaces at least once daily and to apply cream to active skin lesions twice per day and not to apply cream to unaffected areas.
Treatment Period (Weeks 1-12). […] A total of approximately 50 patients were randomized (1:1) to one of the following two treatment groups (see FIG. 10): Group 1: 125 mg of lebrikizumab administered by subcutaneous (SC) injection every 4 weeks (Q4W) for a total of 3 doses; and Group 2: TCS cream alone.
Efficacy Outcome Measures. The exploratory efficacy outcome measures of lebrikizumab monotherapy compared to TCS alone for this study were as follows, in order: (i) percent of patients with a 50% or 75% (EAST 50/75) reduction from baseline EASI at Week 12 (EASI-50 and EASI-75 were defined as a 50% and 75% reduction, respectively, in EASI score at Week 12 compared to baseline); (ii) percent and absolute change from baseline in EASI score at Week 12; (iii) percent of patients achieving an IGA score of 0 or 1 at Week 12; (iv) percent of patients with a ≥2 point reduction from baseline in IGA at Week 12; (v) absolute change from baseline in IGA at Week 12; (vi) percent of patients achieving an IGSA score of 0 or 1 at Week 12; (vii) percent of patients with a ≥2 point reduction from baseline in IGSA at Week 12; (viii) absolute change from baseline in IGSA at Week 12; (ix) percent and absolute change from baseline in SCORAD at Week 12; (x) percent of patients with a 50% or 75% reduction (SCORAD 50/75) from baseline in SCORAD score at Week 12; (xi) percent change from baseline in total percent body surface area (BSA) affected at Week 12; (xii) absolute- and percent-change from baseline in pruritus as measured by the Pruritus VAS (assessed as part of the SCORAD) at Week 12; (xiii) number of disease flares from baseline to Week 12; and (xiv) percent of patients who receive non-protocol specified TCS before Week 12.

[3] = 125 mg Q4W + TCS (n = 50), Weeks 0 to 20
[4] = 125 mg SD + TCS (n = 54), Weeks 0 to 20
[5] = 250 mg SD + TCS (n = 52), Weeks 0 to 20
[6] = all lebrikizumab groups (n = 156), Weeks 0 to 20
[7] = lebrikizumab-treated patients, all doses

Substance: lebrikizumab: monoclonal humanized anti-IL-13 IgG4 antibody; heavy chain SEQ ID NO: 11, light chain SEQ ID NO: 12; formulated at 125 mg/mL in prefilled syringe
- AE leading to withdrawal from study drug, % [1, 3]: (4) %
- Conjunctivitis allergic, % [1, 3]: (4.0) %
- Injection site reactions, % [1, 3]: (4) %
- Patients with at least one AE, % [1, 3]: (54) %
- Patients with at least one serious AE, % [1, 3]: (4) %
- SAE leading to withdrawal from study drug (Myopathy), % [1, 3]: (2) %
- AE leading to withdrawal from study drug, % [1, 4]: (2) %
- Conjunctivitis allergic, % [1, 4]: (7.4) %
- Patients with at least one AE, % [1, 4]: (70) %
- Patients with at least one serious AE, % [1, 4]: (6) %
- AE leading to dose modification/interruption, % [1, 5]: (2) %
- Conjunctival hyperaemia, % [1, 5]: (1.9) %
- Conjunctivitis allergic, % [1, 5]: (3.8) %
- Patients with at least one AE, % [1, 5]: (75) %
- Conjunctival hyperaemia, % [1, 6]: (0.6) %
- Conjunctivitis allergic, % [1, 6]: (5.1) %
- Patients with at least one serious AE, % [1, 6]: (3) %
- SAE leading to withdrawal from study drug (Myopathy), % [1, 6]: (1) %
- Conjunctival infections, irritations and inflammations: patients with at least one AE, % ([1]; human, in vivo): (5.8) %
- Conjunctival infections, irritations and inflammations: total number of events ([1]; human, in vivo): 10
- Herpes infections: total number of infections related to study drug (investigator-assessed) ([1]; human, in vivo): 0
- Infections, % ([1]; human, in vivo): (36) %
- maximum eosinophil count in the five patients with eosinophil-associated AEs ([1]; human, in vivo): 0.91-3.2 ×10^9/L
- Eosinophil-associated AEs, % of patients [1, 7]: 3.2%
- Eosinophil-associated AEs, number of patients [1, 7]: five
- patients with a conjunctivitis AE, % ([1]; pooled lebrikizumab group): 9.6%
- deaths, events of anaphylaxis, malignancy, or protocol-defined parasitic or targeted intracellular infections of interest ([1]; whole study): no deaths
- % change in BSA ([2]; Baseline to Week 12): −43.2%
- % change in EASI ([2]; Baseline to Week 12): −44.0%
- % change in SCORAD ([2]; Baseline to Week 12): −26.6%
- EASI-75 (percent of patients) ([2]; Baseline to Week 12): 39.3%
- EASI-90 (percent of patients) ([2]; Baseline to Week 12): 14.3%
- IGA 0/1 (percent of patients) ([2]; Baseline to Week 12): 7.1%
- % change in pruritus VAS ([2]; Baseline to Week 12): −14.5%
- % change in BSA ([2]; Day −14 to Week 12): −52.2%
- % change in EASI ([2]; Day −14 to Week 12): −53.8%
- % change in SCORAD ([2]; Day −14 to Week 12): −40.5%
- EASI-75 (percent of patients) ([2]; Day −14 to Week 12): 42.9%
- EASI-90 (percent of patients) ([2]; Day −14 to Week 12): 14.3%
- IGA 0/1 (percent of patients) ([2]; Day −14 to Week 12): 7.1%
- % change in pruritus VAS ([2]; Day −14 to Week 12): −39.6%
